Measured values from publication PMC4497409.

B1: Biotinylated human Norrin wild-type (pHL-Avitag3 construct) [modified: biotin on the C-terminal BirA recognition sequence (in vivo biotinylation); biotin on the C-terminal BirA recognition sequence (in vivo biotinylation)] (parent)
chain 1: KTDSSFIMDSDPRRCMRHHYVDSISHPLYKCSSKMVLLARCEGHCSQASRSEPLVSFSTVLKQPFRSSCHCCRPQTSKLKALRLRCSGGMRLTATYRYILSCHCEECNS
chain 2: ERRCDPIRISMCQNLGYNVTKMPNLVGHELQTDAELQLTTFTPLIQYGCSSQLQFFLCSVYVPMCTEKINIPIGPCGGMCLSVKRRCEPVLKEFGFAWPESLNCSKFPPQNDHNHMCMEGPGDEEVPLPHKTPIQPGE

Variants of: B1
Experiment: SPR
Conditions: with Frizzled4 cysteine-rich domain (Fz4CRD), Norrin mutant immobilized on CM5 chip, Fz4CRD as analyte, 1:1 Langmuir binding model

Row | screen value (Surface: 325 RU (WT surface in panel A: 336 RU)) [RU] | Kd (Surface: 325 RU) [nM] | screen value (Surface: 435 RU (WT surface in panel A: 336 RU)) [RU] | Kd (Surface: 435 RU) [nM] | Variant
1 | 122 | 1250 | – | – | chain 1 KTDSSFIMDSDPRRCMRHHYVDSISHPNYSCSSKMVLLARCEGHCSQASRSEPLVSFSTVLKQPFRSSCHCCRPQTSKLKALRLRCSGGMRLTATYRYILSCHCEECNS
2 | – | – | 78 | 1060 | chain 1 KTDSSFIMDSDPRRCMRHHYVDSISHPLYKCSSKMVLLARCEGHCSQASRSEPLVSFSTVLKQPFRSSCHCCRPQTSKLKALRLRCSGGNRSTATYRYILSCHCEECNS
